Measured values from article PMC9898218 (Journal of materials chemistry. B, 2023).

Molecular target: the molecule itself
Assay: SEC

B1: Cowpea chlorotic mottle virus (CCMV) coat protein (natural protein)
chain: MSTVGTGKLTRAQRRAAARKNKRNTRVVQPVIVEPIASGQGKAIKAWTGYSVSKWTASCAAAEAKVTSAITISLPNELSSERNKQLKVGRVLLWLGLLPSVSGTVKSCVTETQTTAAASFQVALAVADNSKDVVAAMYPEAFKGITLEQLTADLTIYLYSSAALTEGDVIVHLEVEHVRPTFDDSFTPVY
**Q.** Does B1 bind?
**A.** Result: binds
